According to the supplement of paper PMC10724198:
± gives the standard deviation of the averaged measurements.

Key:
Saccharomyces cerevisiae [1] = experiment: protein stability index of tFT-peptide fusion (C-terminal peptide) (PSI (0-1 scale)); higher = more stable (slower turnover)
Procedure: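 MPS profiling in S. cerevisiae of the tFT-X12 degron library: putative degron peptides plus stable controls, 12 aa, fused to the C-terminus of a sfGFP-mCherry timer. Cells are FACS-sorted into 8 mCherry/sfGFP bins and deep-sequenced. PSI runs from 0 (unstable) to 1 (stable). Backgrounds are wild type, das1Δ and doa10Δ at 30 °C, and wild type, das1Δ, cdc34-1 and cdc53-1 at 37 °C; 2-3 technical replicates each.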

Saccharomyces cerevisiae [2] = experiment: as above; settings: genetic background: wild type; temperature: 30 C
[3] = genetic background: cdc34-1, temperature: 37 C
[4] = genetic background: cdc53-1, temperature: 37 C
[5] = genetic background: das1 deletion, temperature: 30 C
[6] = genetic background: das1 deletion, temperature: 37 C
[7] = genetic background: doa10 deletion, temperature: 30 C
[8] = genetic background: wild type, temperature: 30 C
[9] = genetic background: wild type, temperature: 37 C
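Note: PSI is a weighted mean of sequencing reads over stability bins, variants kept only with over 10 reads, mCherry proximal and sfGFP distal, peptide attached via GGGS linker.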

Sequence	protein stability index (Saccharomyces cerevisiae [1]; [3])	protein stability index (Saccharomyces cerevisiae [1]; [4])	protein stability index (Saccharomyces cerevisiae [1]; [5])	protein stability index (Saccharomyces cerevisiae [1]; [6])	protein stability index (Saccharomyces cerevisiae [1]; [7])	protein stability index (Saccharomyces cerevisiae [1]; [8])	protein stability index (Saccharomyces cerevisiae [1]; [9])	protein stability index (Saccharomyces cerevisiae [2])
DLRRYRTLIPCK	0.38 ± 0.014	0.425 ± 0.023	0.288 ± 0.034	0.4805 ± 0.0034	0.2277 ± 0.00047	0.275 ± 0.048	0.481 ± 0.038	0.447 ± 0.034
SRARIRLPRILS	0.648 ± 0.033	0.71 ± 0.0083	0.661 ± 0.026	0.72403 ± 0.00037	0.208 ± 0.0047	0.225 ± 0.052	0.494 ± 0.015	0.333 ± 0.024
SVVYCRMRVHFV	0.403 ± 0.024	0.487 ± 0.046	0.373 ± 0.015	0.432 ± 0.014	0.263 ± 0.01	0.285 ± 0.02	0.3786 ± 0.0025	0.285 ± 0.0052
VVRYGGVIAFRG	0.841 ± 0.065	0.641 ± 0.085	0.547 ± 0.017	0.725 ± 0.029	0.579 ± 0.072	0.691 ± 0.13	0.684 ± 0.13	0.596 ± 0.24
AVCVVVMAVFVG	0.339 ± 0.056	0.4098 ± 0.0026	0.297 ± 0.028	0.417 ± 0.012	0.293 ± 0.022	0.3 ± 0.012	0.397 ± 0.021	0.3646 ± 0.0028
GGYCQMFFLYFR	0.0593 ± 0.039	0.0464 ± 0.018	0.0923 ± 0.042	0.0948 ± 0.0031	0.575 ± 0.021	0.0833 ± 0.0047	0.0907 ± 0.031	0.141 ± 0.021
KFRGMTLRNKVC	0.545 ± 0.041	0.73 ± 0.047	0.657 ± 0.019	0.717 ± 0.017	0.093 ± 0.0025	0.1 ± 0.04	0.224 ± 0.069	0.267 ± 0.013
FVRCFWPFVFVF	0.17 ± 0.01	0.142 ± 0.021	0.222 ± 0.031	0.332 ± 0.0095	0.139 ± 0.0072	0.126 ± 0.0099	0.14 ± 0.012	0.203 ± 0.023
VGDIRSFALWYA	0.699 ± 0.039	0.765 ± 0.014	0.661 ± 0.015	0.74 ± 0.0047	0.656 ± 0.038	0.646 ± 0.011	0.707 ± 0.011	0.745 ± 0.041
VFVMRDGFLRKV	0.63323 ± 0.00049	0.7055 ± 0.004	0.636 ± 0.022	0.748 ± 0.025	0.301 ± 0.013	0.341 ± 0.015	0.4507 ± 0.0016	0.374 ± 0.044
VVPWLGYVSCFS	0.452 ± 0.031	0.487 ± 0.027	0.357 ± 0.029	0.521 ± 0.0067	0.324 ± 0.0094	0.366 ± 0.032	0.5026 ± 0.0044	0.465 ± 0.041
VCLRICLVTLMM	0.3 ± 0.019	0.444 ± 0.011	0.284 ± 0.032	0.4615 ± 0.0026	0.2405 ± 0.0017	0.261 ± 0.033	0.4126 ± 0.0014	0.428 ± 0.03
SFSRLWSLFRCL	0.462 ± 0.041	0.68 ± 0.026	0.682 ± 0.014	0.752 ± 0.014	0.15 ± 0.0057	0.13 ± 0.036	0.31 ± 0.038	0.244 ± 0.00058
LFTRWSILFKLF	0.335 ± 0.075	0.357 ± 0.058	0.559 ± 0.032	0.694 ± 0.052	0.0889 ± 0.025	0.0908 ± 0.012	0.136 ± 0.015	0.132 ± 0.0026
LVLSFVMLVSGH	0.183 ± 0.014	0.313 ± 0.02	0.202 ± 0.013	0.384 ± 0.031	0.149 ± 0.0053	0.185 ± 0.024	0.343 ± 0.024	0.289 ± 0.012
GGRWRRRGFFFS	0.6973 ± 0.0024	0.72 ± 0.01	0.702 ± 0.032	0.709 ± 0.026	0.627 ± 0.0095	0.628 ± 0.01	0.673 ± 0.014	0.518 ± 0.097
CVSFFRCLFLIV	0.217 ± 0.0061	0.231 ± 0.019	0.302 ± 0.028	0.3805 ± 0.00051	0.193 ± 0.0083	0.144 ± 0.013	0.194 ± 0.017	0.168 ± 0.0043
CSRVVGLFFLVV	0.5355 ± 0.0037	0.62 ± 0.019	0.427 ± 0.04	0.649 ± 0.042	0.371 ± 0.0081	0.413 ± 0.033	0.604 ± 0.016	0.432 ± 0.033
LVSVLLLFWFLF	0.4146 ± 0.00025	0.368 ± 0.014	0.358 ± 0.05	0.515 ± 0.037	0.344 ± 0.021	0.324 ± 0.013	0.475 ± 0.017	0.394 ± 0.069
LCYVLLWLLCRS	0.45 ± 0.017	0.516 ± 0.049	0.349 ± 0.024	0.512 ± 0.0074	0.33 ± 0.0069	0.353 ± 0.026	0.501 ± 0.033	0.448 ± 0.027

Sequence	protein stability index (Saccharomyces cerevisiae [1]; [3])	protein stability index (Saccharomyces cerevisiae [1]; [4])	protein stability index (Saccharomyces cerevisiae [1]; [5])	protein stability index (Saccharomyces cerevisiae [1]; [6])	protein stability index (Saccharomyces cerevisiae [1]; [7])	protein stability index (Saccharomyces cerevisiae [1]; [8])	protein stability index (Saccharomyces cerevisiae [1]; [9])	protein stability index (Saccharomyces cerevisiae [2])
VLSCVWFVVVGV	0.247 ± 0.013	0.316 ± 0.034	0.245 ± 0.028	0.441 ± 0.019	0.202 ± 0.0034	0.22 ± 0.033	0.4017 ± 0.0016	0.3596 ± 0.00083
YPSCPINFICLC	0.618 ± 0.0088	0.6992 ± 0.0053	0.585 ± 0.017	0.685 ± 0.01	0.29 ± 0.0056	0.308 ± 0.037	0.499 ± 0.0051	0.417 ± 0.035
FFVWLGWGMFYG	0.547 ± 0.034	0.575 ± 0.015	0.425 ± 0.025	0.561 ± 0.0085	0.408 ± 0.0042	0.437 ± 0.013	0.6044 ± 0.0019	0.528 ± 0.054
CSFHFSLFFLRV	0.3793 ± 0.0022	0.426 ± 0.048	0.356 ± 0.027	0.4589 ± 0.0031	0.485 ± 0.042	0.332 ± 0.014	0.422 ± 0.0073	0.334 ± 0.037
RIVSGVVLLVFV	0.404 ± 0.0079	0.469 ± 0.0074	0.237 ± 0.019	0.5234 ± 0.0034	0.206 ± 0.015	0.226 ± 0.042	0.527 ± 0.034	0.336 ± 0.035
FLSLVIVLRWFL	0.278 ± 0.048	0.303 ± 0.045	0.255 ± 0.022	0.381 ± 0.01	0.298 ± 0.021	0.242 ± 0.024	0.346 ± 0.02	0.347 ± 0.042
SFFYFVFYYLSF	0.161 ± 0.042	0.17 ± 0.019	0.259 ± 0.015	0.364 ± 0.017	0.253 ± 0.016	0.204 ± 0.033	0.308 ± 0.01	0.2916 ± 0.0027
LSLPTPLPSPPA	0.656 ± 0.044	0.695 ± 0.041	0.457 ± 0.027	0.629 ± 0.015	0.449 ± 0.019	0.456 ± 0.017	0.591 ± 0.0092	0.48 ± 0.022
NFCVLLQFCVLV	0.437 ± 0.023	0.477 ± 0.023	0.36 ± 0.024	0.4832 ± 0.0002	0.364 ± 0.017	0.36 ± 0.02	0.448 ± 0.0074	0
LWFVIYLLCFFV	0.394 ± 0.015	0.395 ± 0.0045	0.328 ± 0.022	0.482 ± 0.024	0.285 ± 0.0031	0.291 ± 0.04	0.452 ± 0.0078	0.348 ± 0.029
FWILLRVLIFVL	0.176 ± 0.027	0.172 ± 0.0087	0.18 ± 0.033	0.321 ± 0.0095	0.182 ± 0.0047	0.175 ± 0.028	0.246 ± 0.03	0.266 ± 0.011
YCILGSYRLCVG	0.337 ± 0.037	0.434 ± 0.073	0.259 ± 0.033	0.447 ± 0.018	0.2321 ± 0.00024	0.252 ± 0.033	0.427 ± 0.012	0.36 ± 0.0049
ILLICLQFFNLF	0.427 ± 0.057	0.544 ± 0.012	0.394 ± 0.035	0.5269 ± 0.0039	0.3502 ± 0.00069	0.36 ± 0.018	0.505 ± 0.0075	0.4481 ± 0.0036
RVFRLDRRLQVV	0.55 ± 0.02	0.633 ± 0.041	0.509 ± 0.018	0.638 ± 0.012	0.128 ± 0.012	0.154 ± 0.018	0.213 ± 0.005	0.3 ± 0.0059
GRVCWVVLAGLV	0.593 ± 0.04	0.591 ± 0.053	0.441 ± 0.026	0.6202 ± 0.0013	0.307 ± 0.01	0.341 ± 0.026	0.5394 ± 0.0042	0.429 ± 0.0095
SSLTFTFAILLY	0.19 ± 0.026	0.188 ± 0.011	0.207 ± 0.025	0.339 ± 0.015	0.369 ± 0.018	0.219 ± 0.025	0.312 ± 0.052	0.339 ± 0.011
LVPVWVGLRVLF	0.422 ± 0.021	0.429 ± 0.0053	0.354 ± 0.042	0.537 ± 0.015	0.347 ± 0.018	0.328 ± 0.022	0.506 ± 0.014	0.421 ± 0.065
MVAHTVRVKCGI	0.638 ± 0.049	0.66 ± 0.021	0.544 ± 0.031	0.674 ± 0.0096	0.557 ± 0.016	0.56 ± 0.056	0.6622 ± 0.0012	0.547 ± 0.13
SILVSIFILAMQ	0.205 ± 0.029	0.311 ± 0.0043	0.229 ± 0.043	0.412 ± 0.0063	0.199 ± 0.008	0.219 ± 0.048	0.355 ± 0.015	0.189 ± 0.019
